Target: the molecule itself
Experiment: detergent-resistant band of doubled size on SDS-PAGE and western blot

B1: TMEM70-FLAG (natural protein, human, UniProt Q9BUB7 82-260, looked up)
chain: LNTPSDKSEDGRLIYTGNMARAVFGVKCFSYSTSLIGLTFLPYIFTQNNAISESVPLPIQIIFYGIMGSFTVITPVLLHFITKGYVIRLYHEATTDTYKAITYNAMLAETSTVFHQNDVKIPDAKHVFTTFYAKTKSLLVNPVLFPNREDYIHLMGYDKEEFILYMEETSEEKRHKDDK
stoichiometry N: 2
